# Measured values from patent publication US9074018B2, “Reconstituted pulmonary surfactants” (CHIESI FARMACEUTICI S.p.A, priority 2012, dated 2015).
# Assay: Viscosity of the surfactant preparation
# Format: physicochemical
# Conditions: mixed with a phospholipid mixture consisting of DPPC:POPG 7:3 (w/w)
# Source text: Advantageously the viscosity of said formulations is less than 20 centiPoise (cP), preferably less than 15 cP, upon determination with a common viscometer available on the market according to methods known in the art.
sequence,measurement,value
"CWLCRALIKRFNRYLTPQLVCRLVLRC [ox Mini-B27, SP-B analogue of formula (III), shorter analogue of ox Mini-B(Leu)]",viscosity of the preparation,viscous
